In this assay the target is T1, 12 amino acid peptide (HSET-N) labeled with biotin at the N-terminus (bio-…).
T1 sequence (peptide, biotin at the N-terminus): EDGLEPEKKRTR
The assay is described as follows: SPR; BIAcore T200, 25 °C; biotinylated peptide immobilised on a Series S sensor chip SA at 10-40 RU; antibodies injected 3 min at 30 µl/min in HBS-EP (10 mM HEPES pH 7.4, 250 mM NaCl, 3 mM EDTA, 0.05% P-20); at least five concentrations; 1:2 binding model, which reflects the avidity effect; KD = ….

B1: mouse 6C407 IgG2a/κ (antibody, V domains shown)
VH: EVQLQQSGAELVKPGASVKLSCTASGFNIKDTYIHWVKQRPEQGLEWIGRIDPANGNTKYDPKFQGKATITADTSSNTAYLQLSSLTSEDTAVYYCARGYGSRSAMDYWGQGTSVTVS
VL: DIVLTQSPASLAVSLGQRATISCRASKSVSTSGYSYMLWYQQKPGQPPKLLIYLASNLESGVPARFSGSGSGTDFTLNIHPVEEEDAATYYCQHSRELPWTFGGGTKLEIK
For B1, the Kd was 2.45 nM, the off-rate constant (koff) (commonly the rate constant with which the complex falls apart) was determined as 0.00138 s⁻¹ and the kon (usually the rate constant with which the complex forms) turned out to be 567000 M⁻¹ s⁻¹.

B2: chimeric mouse-chicken MC-6C407 IgY/λ (antibody, V domains shown)
VH: EVQLQQSGAELVKPGASVKLSCTASGFNIKDTYIHWVKQRPEQGLEWIGRIDPANGNTKYDPKFQGKATITADTSSNTAYLQLSSLTSEDTAVYYCARGYGSRSAMDYWGQGTSVTVS
VL: DIVLTQSPASLAVSLGQRATISCRASKSVSTSGYSYMLWYQQKPGQPPKLLIYLASNLESGVPARFSGSGSGTDFTLNIHPVEEEDAATYYCQHSRELPWTFGGGTKLEIK
B2 had a Kd of 1.24 nM, a koff of 0.000632 s⁻¹ and a kon of 511000 M⁻¹ s⁻¹.
